# Data as given in the RNAGym collection of RNA variant scans (doi:10.7554/elife.90254).
# B1: OR4K15 (parent)
# chain: GUUAACGGUCAUAGGCCAUGGAAACUAGGAGCACCAUUUCGCUGCCAGUGAAGAAAUGAACAAAGAAAAUCUGGGCCAGGCAGGCAUCAAAAGAAAUAGUCUUGCGCUCAACCAGAAAGUCUGUAAUCAUUUUAAGGGUA
# Variants of: B1
# Test: self-cleavage, relative activity (ratio to wild type); higher = more cleavage; in vitro, sequencing; the parent is a self-cleaving ribozyme
row,Variant,self-cleavage
1,GUUAACGGUCAUAGGCCAUGGAAACUAGGAGCACCAUUUCGCUGCCAGUGAAGAUAUGAACGAAGAAAAUCUGGGCCAGGCAGGCAUCAAAAGAAAUAGUCUUGCGCUCAACCAGAAAGUCUGUAAUCAUUUUAAGGGUA [A55U A62G],0.23
2,GUUAACGGUCAUAGGCCAUGGAAACUAGGAGCACCAUUUCGCUGCCAGUGAAGAGAUGAACAAAGAAAAUCUGGGCCAGGCAGGCAUCAAAAGAAACAGUCUUGCGCUCAACCAGAAAGUCUGUAAUCAUUUUAAGGGUA [A55G U97C],1.27
3,GUUAACGGUCAUAGGCCAUGGAAACUAGGAGCACCAUUUCGCUGCCAGUGAAGAGAUGAACAAAGAAAAUCUGGGCCAGGCAGGCAUCAAAAGAAAAAGUCUUGCGCUCAACCAGAAAGUCUGUAAUCAUUUUAAGGGUA [A55G U97A],1.51
4,GUUAACGGUCAUAGGCCAUGGAAACUAGGAGCACCAUUUCGCUGCCAGUGAAGAUAUGUACAAAGAAAAUCUGGGCCAGGCAGGCAUCAAAAGAAAUAGUCUUGCGCUCAACCAGAAAGUCUGUAAUCAUUUUAAGGGUA [A55U A59U],1.92
5,GUUAACGGUCAUAGGCCAUGGAAACUAGGAGCACCAUUUCGCUGCCAGUGAAGAGAUGAACAAAGAAAAUCUGGGCCAGGCAGGCAUCAAAAGAAAUAGUCUUGCGCUCAACCAGAAAGUCUGCAAUCAUUUUAAGGGUA [A55G U124C],0.5
6,GUUAACGGUCAUAGGCCAUGGAAACUAGGAGCACCAUUUCGCUGCCAGUGAAGAGAUGAACAAAGAAAAUCUGGGCCAGGCAGGCAUCAAAAGAAAUAGUCUUGCGCUCAACCAGAAAGUCUGAAAUCAUUUUAAGGGUA [A55G U124A],0.97
7,GUUAACGGUCAUAGGCCAUGGAAACUAGGAGCACCAUUUCGCUGCCAGUGAAGAGAUGAACAAAGAAAAUCUGGGCCAGGCAGGCAUCAAAAGAAAUAGUCUUGCGCGCAACCAGAAAGUCUGUAAUCAUUUUAAGGGUA [A55G U108G],0.03
8,GUUAACGGUCAUAGGCCAUGGAAACUAGGAGCACCAUUUCGCUGCCAGUGAAGAGAUGAACAAAGAAAAUCUGUGCCAGGCAGGCAUCAAAAGAAAUAGUCUUGCGCUCAACCAGAAAGUCUGUAAUCAUUUUAAGGGUA [A55G G74U],0.1
9,GUUAACGGUCAUAGGCCAUGGAAACUAGGAGCACCAUUUCGCUGCCAGUGAAGAGAGGAACAAAGAAAAUCUGGGCCAGGCAGGCAUCAAAAGAAAUAGUCUUGCGCUCAACCAGAAAGUCUGUAAUCAUUUUAAGGGUA [A55G U57G],1.41
10,GUUAACGGUCAUAGGCCAUGGAAACUAGGAGCACCAUUUCGCUGCCAGUGAAGAGACGAACAAAGAAAAUCUGGGCCAGGCAGGCAUCAAAAGAAAUAGUCUUGCGCUCAACCAGAAAGUCUGUAAUCAUUUUAAGGGUA [A55G U57C],1.13
11,GUUAACGGUCAUAGGCCAUGGAAACUAGGAGCACCAUUUCGCUGCCAGUGAAGAGAUGAACAAAGAAAAUCUGGGCCAGGCAGGCAUCAAAAGAAAUAGUCUUGCGCUCAACCAGAAAGUCUGUAAUCAUCUUAAGGGUA [A55G U131C],1.63
12,GUUAACGGUCAUAGGCCAUGGAAACUAGGAGCACCAUUUCGCUGCCAGUGAAGAGAUGAACAAAGAAAAUCUGGGCCAGGCAAGCAUCAAAAGAAAUAGUCUUGCGCUCAACCAGAAAGUCUGUAAUCAUUUUAAGGGUA [A55G G83A],0.71
13,GUUAACGGUCAUAGGCCAUGGAAACUAGGAGCACCAUUUCGCUGCCAGUGAAGAUAUGAACAAAGAGAAUCUGGGCCAGGCAGGCAUCAAAAGAAAUAGUCUUGCGCUCAACCAGAAAGUCUGUAAUCAUUUUAAGGGUA [A55U A67G],1.12
14,GUUAACGGUCAUAGGCCAUGGAAACUAGGAGCACCAUUUCGCUGCCAGUGAAGAUAUGAACAAAGAUAAUCUGGGCCAGGCAGGCAUCAAAAGAAAUAGUCUUGCGCUCAACCAGAAAGUCUGUAAUCAUUUUAAGGGUA [A55U A67U],1.6
15,GUUAACGGUCAUAGGCCAUGGAAACUAGGAGCACCAUUUCGCUGCCAGUGAAGAGAUGAACAAAGAAAAUCUGGGCCAGGCAGGCAUCAAAAGAAAUAGUCUUGCGCUCAACCAGAAAGUCUGUAAUCAAUUUAAGGGUA [A55G U130A],0.52
16,GUUAACGGUCAUAGGCCAUGGAAACUAGGAGCACCAUUUCGCUGCCAGUGAAGAGAUGAACAAAGAAAAUCUGGGCCAGGCAGGCAUCAAAAGAAAUAGUCUUGCGCUCAACCAGAAAGUCUGUAAUCAUUAUAAGGGUA [A55G U132A],1.61
17,GUUAACGGUCAUAGGCCAUGGAAACUAGGAGCACCAUUUCGCUGCCAGUGAAGAGAUGAACAAAGAAAAUCUGGGCCAGGCAGGCAUCAAAAGAAAUAGUCUUGCGCUCAACCAGAAAGUCUGUAAUCAUUCUAAGGGUA [A55G U132C],1.46
18,GUUAACGGUCAUAGGCCAUGGAAACUAGGAGCACCAUUUCGCUGCCAGUGAAGAGAUGAACAAAGAAAAUCUGGGCCAGGCAGGCAUCAAAAUAAAUAGUCUUGCGCUCAACCAGAAAGUCUGUAAUCAUUUUAAGGGUA [A55G G93U],1.76
19,GUUAACGGUCAUAGGCCAUGGAAACUAGGAGCACCAUUUCGCUGCCAGUGAAGAGAUGAACAAAGAAAAUCUGGGCCAGGCAGGCAUCAAAAGAAAUAGUCUUGCGCUCAACCAGAAAGUCUGUAAUAAUUUUAAGGGUA [A55G C128A],1.06
20,GUUAACGGUCAUAGGCCAUGGAAACUAGGAGCACCAUUUCGCUGCCAGUGAAGAUAUGAACAAAGAAAAUCUGGGCCAGGCGGGCAUCAAAAGAAAUAGUCUUGCGCUCAACCAGAAAGUCUGUAAUCAUUUUAAGGGUA [A55U A82G],0.61
21,GUUAACGGUCAUAGGCCAUGGAAACUAGGAGCACCAUUUCGCUGCCAGUGAAGAGAUGAACAAAGAAAAUCUGGGCCAGGCAGGCAUCAAAAGAAAUAGUCAUGCGCUCAACCAGAAAGUCUGUAAUCAUUUUAAGGGUA [A55G U102A],0.81

row,Variant,self-cleavage
1,GUUAACGGUCAUAGGCCAUGGAAACUAGGAGCACCAUUUCGCUGCCAGUGAAGAUAUGAACAAAGAAAAUCUGGGCCAGGCAGGCAUCAAAAGAAAUAGUCUUGCGCUCAACCAGAAAGUCUGUAAUCAUUUUAAGGGUA [A55U],1.13
2,GUUAACGGUCAUAGGCCAUGGAAACUAGGAGCACCAUUUCGCUGCCAGUGAAGAGAUGAACAAAGAAAAUCUGGGCCAGGCAGGCAUCAAAAGAAAUAGUCUUGCGCUCAACCAAAAAGUCUGUAAUCAUUUUAAGGGUA [A55G G115A],0.14
3,GUUAACGGUCAUAGGCCAUGGAAACUAGGAGCACCAUUUCGCUGCCAGUGAAGAGAUGAACAAAGAAAAUCUGGGCCAGGCAGGCAUCAAAAGAAAUAGUCUUGCGCUCAACCAUAAAGUCUGUAAUCAUUUUAAGGGUA [A55G G115U],0.03
4,GUUAACGGUCAUAGGCCAUGGAAACUAGGAGCACCAUUUCGCUGCCAGUGAAGAGAUGAACAAAGAAAAUCUGGGCCAGGCAGGCAUCAAAAGAAAUAGUCUUGCUCUCAACCAGAAAGUCUGUAAUCAUUUUAAGGGUA [A55G G106U],0.02
5,GUUAACGGUCAUAGGCCAUGGAAACUAGGAGCACCAUUUCGCUGCCAGUGAAGAGAUGAACAAAGAAAACCUGGGCCAGGCAGGCAUCAAAAGAAAUAGUCUUGCGCUCAACCAGAAAGUCUGUAAUCAUUUUAAGGGUA [A55G U70C],0.29
6,GUUAACGGUCAUAGGCCAUGGAAACUAGGAGCACCAUUUCGCUGCCAGUGAAGAUAUGAACAAAGAAAAUCUGGGCCAGGCAGGCAUCAAAAGAAAUGGUCUUGCGCUCAACCAGAAAGUCUGUAAUCAUUUUAAGGGUA [A55U A98G],0.19
7,GUUAACGGUCAUAGGCCAUGGAAACUAGGAGCACCAUUUCGCUGCCAGUGAAGAGAUGAACAAAGAAAAUCUGGGCCAGGCAGGCACCAAAAGAAAUAGUCUUGCGCUCAACCAGAAAGUCUGUAAUCAUUUUAAGGGUA [A55G U87C],0.64
8,GUUAACGGUCAUAGGCCAUGGAAACUAGGAGCACCAUUUCGCUGCCAGUGAAGAGAUGAACAAAGAAAAUCUGGGCCAGGCAGGCAUCAAAAGAAAUAGUCUUGCGCUCAACCAGAAAGCCUGUAAUCAUUUUAAGGGUA [A55G U120C],0.85
9,GUUAACGGUCAUAGGCCAUGGAAACUAGGAGCACCAUUUCGCUGCCAGUGAAGAUAUGAACAAAGAAAAUCUGGGCCAGGCAGGCAUCAAAGGAAAUAGUCUUGCGCUCAACCAGAAAGUCUGUAAUCAUUUUAAGGGUA [A55U A92G],1.36
10,GUUAACGGUCAUAGGCCAUGGAAACUAGGAGCACCAUUUCGCUGCCAGUGAAGAUAUGAACAAAGAAAAUCUGGGCCAGGCAGGCAUCAAAUGAAAUAGUCUUGCGCUCAACCAGAAAGUCUGUAAUCAUUUUAAGGGUA [A55U A92U],2.65
11,GUUAACGGUCAUAGGCCAUGGAAACUAGGAGCACCAUUUCGCUGCCAGUGAAGAGAUGAACAAAGAAAAUCCGGGCCAGGCAGGCAUCAAAAGAAAUAGUCUUGCGCUCAACCAGAAAGUCUGUAAUCAUUUUAAGGGUA [A55G U72C],0.28
12,GUUAACGGUCAUAGGCCAUGGAAACUAGGAGCACCAUUUCGCUGCCAGUGAAGAGAUGAACAAAGAAAAUCAGGGCCAGGCAGGCAUCAAAAGAAAUAGUCUUGCGCUCAACCAGAAAGUCUGUAAUCAUUUUAAGGGUA [A55G U72A],0.19
13,GUUAACGGUCAUAGGCCAUGGAAACUAGGAGCACCAUUUCGCUGCCAGUGAAGAUAUGAACAAGGAAAAUCUGGGCCAGGCAGGCAUCAAAAGAAAUAGUCUUGCGCUCAACCAGAAAGUCUGUAAUCAUUUUAAGGGUA [A55U A64G],1.76
14,GUUAACGGUCAUAGGCCAUGGAAACUAGGAGCACCAUUUCGCUGCCAGUGAAGAUAUGAACAAAGAAAAUCUGGGCCAGGCAGGCAUCAAAAGAACUAGUCUUGCGCUCAACCAGAAAGUCUGUAAUCAUUUUAAGGGUA [A55U A96C],0.74
15,GUUAACGGUCAUAGGCCAUGGAAACUAGGAGCACCAUUUCGCUGCCAGUGAAGAGAUGAACAAAGAAAAUCUGGGCCAGGCAGGCAUCAAAAGAAAUAGUCUUGCGCUCAACCAGAAAGUCUGUAAACAUUUUAAGGGUA [A55G U127A],1.65
16,GUUAACGGUCAUAGGCCAUGGAAACUAGGAGCACCAUUUCGCUGCCAGUGAAGAUAUGAACAAAGAAAAUCUGGGCCAGGCAGGCAUCUAAAGAAAUAGUCUUGCGCUCAACCAGAAAGUCUGUAAUCAUUUUAAGGGUA [A55U A89U],0.56
17,GUUAACGGUCAUAGGCCAUGGAAACUAGGAGCACCAUUUCGCUGCCAGUGAAGAGAUGAACAAAGAAAAUCUGGGCCAGGCAGGCAUCAAAAGAAAUAGUCUUGCGCUCAACCAGAAACUCUGUAAUCAUUUUAAGGGUA [A55G G119C],1.03
18,GUUAACGGUCAUAGGCCAUGGAAACUAGGAGCACCAUUUCGCUGCCAGUGAAGAUCUGAACAAAGAAAAUCUGGGCCAGGCAGGCAUCAAAAGAAAUAGUCUUGCGCUCAACCAGAAAGUCUGUAAUCAUUUUAAGGGUA [A55U A56C],2.18
19,GUUAACGGUCAUAGGCCAUGGAAACUAGGAGCACCAUUUCGCUGCCAGUGAAGAGAUGAACAAAGAAAAUCUGGGCCAGGCAGGCAUCAAAAGAAAUAGUCUCGCGCUCAACCAGAAAGUCUGUAAUCAUUUUAAGGGUA [A55G U103C],1.06
20,GUUAACGGUCAUAGGCCAUGGAAACUAGGAGCACCAUUUCGCUGCCAGUGAAGAGAUGAACAAAGAAAAUCUGGGCCAGGCAGGCAUCAAAAGAAAUAGUCUAGCGCUCAACCAGAAAGUCUGUAAUCAUUUUAAGGGUA [A55G U103A],0.46
